# From patent US20260098092A1 (CHULALONGKORN UNIVERSITY, published 2026)
# B1: Modified Seq11 (modified zCUSB0136.8 antibody) (antibody, V domains shown)
# VH: QVQLQESGPGLVKPSETLSLTCTVSGFSLTTYDIIWIRQSPGKGLEWLGVIWTGGDTTYNSAFMSRLTISKDTSKNQISLKMSSLTAADTAVYYCARDWAYWGQGTLVTVSS
# VL: DIVLTQSPDSLAVSLGERATISCRASESVDNYGNSFIQWYQQKPGQPPKLLIYFASYLQSGVPDRFSGSGSGTDFTLTISSVQAEDVATYYCHQNNEDPFTFGGGTKLEIK
# B2: Modified Seq6 (modified zCUSB0136.8 antibody) (antibody, V domains shown)
# VH: QVQLQESGPGLVKPSETLSLTCTVSGFSLTTYDIIWIRQSPGKGLEWLGVIWTGGDTTYNSAFMSRLTISKDTSKNQISLKMSSLTAADTAVYYCARDWIYWGQGTLVTVSS
# VL: DIVLTQSPDSLAVSLGERATISCRASESVDNYGNSFIQWYQQKPGQPPKLLIYFASYLQSGVPDRFSGSGSGTDFTLTISSVQAEDVATYYCHQNNEDPFTFGGGTKLEIK
# B3: Modified Seq4 (modified zCUSB0136.8 antibody) (antibody, V domains shown)
# VH: QVQLQESGPGLVKPSETLSLTCTVSGFSLTVYDIIWIRQSPGKGLEWLGVIWTGGDTTYNSAFMSRLTISKDTSKNQISLKMSSLTAADTAVYYCARDWAYWGQGTLVTVSS
# VL: DIVLTQSPDSLAVSLGERATISCRASESVDNYGNSFIQWYQQKPGQPPKLLIYFASYLQSGVPDRFSGSGSGTDFTLTISSVQAEDVATYYCHQNNEDPFTFGGGTKLEIK
# B4: Modified Seq3 (modified zCUSB0136.8 antibody) (antibody, V domains shown)
# VH: QVQLQESGPGLVKPSETLSLTCTVSGFSLTTYDIIWIRQSPGKGLEWLGVIWTGGDTTYNSAFMSRLTISKDTSKNQISLKMSSLTAADTAVYYCARDWIYWGQGTLVTVSS
# VL: DIVLTQSPDSLAVSLGERATISCRASESVDNWGNSFIQWYQQKPGQPPKLLIYFASYLQSGVPDRFSGSGSGTDFTLTISSVQAEDVATYYCHQNNEDPFTFGGGTKLEIK
# B5: Modified Seq18 (modified zCUSB0136.8 antibody) (antibody, V domains shown)
# VH: QVQLQESGPGLVKPSETLSLTCTVSGFSLTTYDIIWIRQSPGKGLEWLGVIWTGGDTTYNSAFMSRLTISKDTSKNQISLKMSSLTAADTAVYYCARDWAYWGQGTLVTVSS
# VL: DIVLTQSPDSLAVSLGERATISCRASESVDNWGNSFIQWYQQKPGQPPKLLIYFASQLQSGVPDRFSGSGSGTDFTLTISSVQAEDVATYYCHQNNEDPFTFGGGTKLEIK
# B6: Modified Seq5 (modified zCUSB0136.8 antibody) (antibody, V domains shown)
# VH: QVQLQESGPGLVKPSETLSLTCTVSGFSLTVYDIIWIRQSPGKGLEWLGVIWTGGDTTYNSAFMSRLTISKDTSKNQISLKMSSLTAADTAVYYCARDWMYWGQGTLVTVSS
# VL: DIVLTQSPDSLAVSLGERATISCRASESVDNYGNSFIQWYQQKPGQPPKLLIYFASYLQSGVPDRFSGSGSGTDFTLTISSVQAEDVATYYCHQNNEDPFTFGGGTKLEIK
# B7: Modified Seq12 (modified zCUSB0136.8 antibody) (antibody, V domains shown)
# VH: QVQLQESGPGLVKPSETLSLTCTVSGFSLTVYDIIWIRQSPGKGLEWLGVIWTGGDTTYNSAFMSRLTISKDTSKNQISLKMSSLTAADTAVYYCARDWIYWGQGTLVTVSS
# VL: DIVLTQSPDSLAVSLGERATISCRASESVDNWGNSFIQWYQQKPGQPPKLLIYFASHLQSGVPDRFSGSGSGTDFTLTISSVQAEDVATYYCHQNNEDPFTFGGGTKLEIK
# B8: Modified Seq2 (modified zCUSB0136.8 antibody) (antibody, V domains shown)
# VH: QVQLQESGPGLVKPSETLSLTCTVSGFSLTVYDIIWIRQSPGKGLEWLGVIWTGGDTTYNSAFMSRLTISKDTSKNQISLKMSSLTAADTAVYYCARDWIYWGQGTLVTVSS
# VL: DIVLTQSPDSLAVSLGERATISCRASESVDNYGNSFIQWYQQKPGQPPKLLIYFASYLQSGVPDRFSGSGSGTDFTLTISSVQAEDVATYYCHQNNEDPFTFGGGTKLEIK
# B9: Modified Seq1 (modified zCUSB0136.8 antibody) (antibody, V domains shown)
# VH: QVQLQESGPGLVKPSETLSLTCTVSGFSLTTYDIIWIRQSPGKGLEWLGVIWTGGDTWYNSAFMSRLTISKDTSKNQISLKMSSLTAADTAVYYCARDWAYWGQGTLVTVSS
# VL: DIVLTQSPDSLAVSLGERATISCRASESVDNWGNSFIQWYQQKPGQPPKLLIYFASYLQSGVPDRFSGSGSGTDFTLTISSVQAEDVATYYCHQNNEDPFTFGGGTKLEIK
# B10: Modified Seq20 (modified zCUSB0136.8 antibody) (antibody, V domains shown)
# VH: QVQLQESGPGLVKPSETLSLTCTVSGFSLTVYDIIWIRQSPGKGLEWLGVIWTGGDTTYNSAFMSRLTISKDTSKNQISLKMSSLTAADTAVYYCARDWIYWGQGTLVTVSS
# VL: DIVLTQSPDSLAVSLGERATISCRASESVDNYGNSFIQWYQQKPGQPPKLLIYFASHLQSGVPDRFSGSGSGTDFTLTISSVQAEDVATYYCHQNNEDPFTFGGGTKLEIK
# B11: Modified Seq9 (modified zCUSB0136.8 antibody) (antibody, V domains shown)
# VH: QVQLQESGPGLVKPSETLSLTCTVSGFSLTTYDIIWIRQSPGKGLEWLGVIWTGGDTNYNSAFMSRLTISKDTSKNQISLKMSSLTAADTAVYYCARDWAYWGQGTLVTVSS
# VL: DIVLTQSPDSLAVSLGERATISCRASESVDNYGNSFIQWYQQKPGQPPKLLIYFASYLQSGVPDRFSGSGSGTDFTLTISSVQAEDVATYYCHQNNEDPFTFGGGTKLEIK
# B12: Modified Seq10 (modified zCUSB0136.8 antibody) (antibody, V domains shown)
# VH: QVQLQESGPGLVKPSETLSLTCTVSGFSLTTYDIIWIRQSPGKGLEWLGVIWTGGDTWYNSAFMSRLTISKDTSKNQISLKMSSLTAADTAVYYCARDWMYWGQGTLVTVSS
# VL: DIVLTQSPDSLAVSLGERATISCRASESVDNWGNSFIQWYQQKPGQPPKLLIYFASHLQSGVPDRFSGSGSGTDFTLTISSVQAEDVATYYCHQNNEDPFTFGGGTKLEIK
# B13: Modified Seq17 (modified zCUSB0136.8 antibody) (antibody, V domains shown)
# VH: QVQLQESGPGLVKPSETLSLTCTVSGFSLTVYDIIWIRQSPGKGLEWLGVIWTGGDTTYNSAFMSRLTISKDTSKNQISLKMSSLTAADTAVYYCARDWAYWGQGTLVTVSS
# VL: DIVLTQSPDSLAVSLGERATISCRASESVDNYGNSFIQWYQQKPGQPPKLLIYFASYLQSGVPDRFSGSGSGTDFTLTISSVQAEDVATYYCHQNNEDPFTFGGGTKLEIK
# B14: Modified Seq7 (modified zCUSB0136.8 antibody) (antibody, V domains shown)
# VH: QVQLQESGPGLVKPSETLSLTCTVSGFSLTTYDIIWIRQSPGKGLEWLGVIWTGGDTTYNSAFMSRLTISKDTSKNQISLKMSSLTAADTAVYYCARDWMYWGQGTLVTVSS
# VL: DIVLTQSPDSLAVSLGERATISCRASESVDNYGNSFIQWYQQKPGQPPKLLIYFASYLQSGVPDRFSGSGSGTDFTLTISSVQAEDVATYYCHQNNEDPFTFGGGTKLEIK
# B15: Modified Seq21 (modified zCUSB0136.8 antibody) (antibody, V domains shown)
# VH: QVQLQESGPGLVKPSETLSLTCTVSGFSLTTYDIIWIRQSPGKGLEWLGVIWTGGDTTYNSAFMSRLTISKDTSKNQISLKMSSLTAADTAVYYCARDWAYWGQGTLVTVSS
# VL: DIVLTQSPDSLAVSLGERATISCRASESVDNWGNSFIQWYQQKPGQPPKLLIYFASNLQSGVPDRFSGSGSGTDFTLTISSVQAEDVATYYCHQNNEDPFTFGGGTKLEIK
# B16: Modified Seq15 (modified zCUSB0136.8 antibody) (antibody, V domains shown)
# VH: QVQLQESGPGLVKPSETLSLTCTVSGFSLTVYDIIWIRQSPGKGLEWLGVIWTGGDTTYNSAFMSRLTISKDTSKNQISLKMSSLTAADTAVYYCARDWAYWGQGTLVTVSS
# VL: DIVLTQSPDSLAVSLGERATISCRASESVDNWGNSFIQWYQQKPGQPPKLLIYFASNLQSGVPDRFSGSGSGTDFTLTISSVQAEDVATYYCHQNNEDPFTFGGGTKLEIK
# B17: Modified Seq19 (modified zCUSB0136.8 antibody) (antibody, V domains shown)
# VH: QVQLQESGPGLVKPSETLSLTCTVSGFSLTTYDIIWIRQSPGKGLEWLGVIWTGGDTTYNSAFMSRLTISKDTSKNQISLKMSSLTAADTAVYYCARDWAYWGQGTLVTVSS
# VL: DIVLTQSPDSLAVSLGERATISCRASESVDNWGNSFIQWYQQKPGQPPKLLIYFASNLQSGVPDRFSGSGSGTDFTLTISSVQAEDVATYYCHQNNEDPFTFGGGTKLEIK
# B18: Modified Seq14 (modified zCUSB0136.8 antibody) (antibody, V domains shown)
# VH: QVQLQESGPGLVKPSETLSLTCTVSGFSLTTYDIIWIRQSPGKGLEWLGVIWTGGDTTYNSAFMSRLTISKDTSKNQISLKMSSLTAADTAVYYCARDWIYWGQGTLVTVSS
# VL: DIVLTQSPDSLAVSLGERATISCRASESVDNWGNSFIQWYQQKPGQPPKLLIYFASNLQSGVPDRFSGSGSGTDFTLTISSVQAEDVATYYCHQNNEDPFTFGGGTKLEIK
# B19: Modified Seq22 (modified zCUSB0136.8 antibody) (antibody, V domains shown)
# VH: QVQLQESGPGLVKPSETLSLTCTVSGFSLTTYDIIWIRQSPGKGLEWLGVIWTGGDTTYNSAFMSRLTISKDTSKNQISLKMSSLTAADTAVYYCARDWAYWGQGTLVTVSS
# VL: DIVLTQSPDSLAVSLGERATISCRASESVDNWGNSFIQWYQQKPGQPPKLLIYFASNLQSGVPDRFSGSGSGTDFTLTISSVQAEDVATYYCHQNNEDPFTFGGGTKLEIK
# B20: Modified Seq8 (modified zCUSB0136.8 antibody) (antibody, V domains shown)
# VH: QVQLQESGPGLVKPSETLSLTCTVSGFSLTTYDIIWIRQSPGKGLEWLGVIWTGGDTWYNSAFMSRLTISKDTSKNQISLKMSSLTAADTAVYYCARDWIYWGQGTLVTVSS
# VL: DIVLTQSPDSLAVSLGERATISCRASESVDNYGNSFIQWYQQKPGQPPKLLIYFASYLQSGVPDRFSGSGSGTDFTLTISSVQAEDVATYYCHQNNEDPFTFGGGTKLEIK
# Target: T1, recombinant human PD-1 His-tag protein (R&D Systems) (human, UniProt Q15116 25-167)
# T1 construct: Bought reagent; Used for the ELISA (coated) and for SPR (analyte); also called PD-1 protein; human PD-1 protein; not shown: His-tag
# T1 sequence (Q15116 25-167 limits assumed): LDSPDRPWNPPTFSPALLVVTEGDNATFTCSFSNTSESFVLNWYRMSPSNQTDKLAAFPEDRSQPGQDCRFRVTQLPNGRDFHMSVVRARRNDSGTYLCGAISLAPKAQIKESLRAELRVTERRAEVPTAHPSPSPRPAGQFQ
# Assay: binding kinetics (method not described at the table; presumably SPR as in Example 8)
Kd [nM],koff [s⁻¹],kon [M⁻¹ s⁻¹],Binder
0.0206,7.57e-05,3.67e+06,B1
0.0136,5.45e-05,4e+06,B2
0.00944,3.92e-05,4.15e+06,B3
0.00931,5.28e-05,5.67e+06,B4
0.0307,7.82e-05,2.54e+06,B5
0.0108,4.36e-05,4.06e+06,B6
0.0225,6.81e-05,3.03e+06,B7
0.00571,2.53e-05,4.44e+06,B8
0.00539,2.81e-05,5.21e+06,B9
0.0319,8.7e-05,2.73e+06,B10
0.0158,5.98e-05,3.78e+06,B11
0.0174,6.74e-05,3.87e+06,B12
0.0289,7.39e-05,2.56e+06,B13
0.0142,5.48e-05,3.84e+06,B14
0.0412,0.000104,2.52e+06,B15
0.0246,6.3e-05,2.56e+06,B16
0.0315,7.97e-05,2.53e+06,B17
0.0244,6.5e-05,2.67e+06,B18
0.057,0.000134,2.36e+06,B19
0.0147,6.09e-05,4.13e+06,B20
